Experiment: yeast display, Sf9 membrane polyspecificity reagent, FACS + sequencing; frameworks hold sequencing errors
Summary of the method: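 Nanobodies from a synthetic yeast display library (Saccharomyces cerevisiae BJ5465), induced 36–48 hours with galactose, were stained 1 hour at 4 °C with 10% biotinylated, detergent-solubilized Sf9 membrane reagent, enriched on streptavidin microbeads, then FACS-sorted. Anti-HA (expression) and streptavidin (reagent binding) fluorescence set low and high (top ~1%) gates. Polyreactivity labels come from the gate of origin. Genes were colony-PCR amplified, MiSeq 2 × 250 sequenced and filtered by CDR length.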

| Sequence | polyreactivity (PSR sort gate) |
| --- | --- |
| QVQLQVSGGDLVQAGGSLRLSCAASGTIYGLISMGWYRQAPGKEREFVAAITDGGNTNYADSVKGRFTISRDNAKYTVYLQMISLKPEDTAVYYCAVLFSDDAYYAYWGQGTQVTVSS | low polyreactivity |
| HVQLVESGGGLVQAGGSLRLSCAASGYTFWDYAMGWYRQAPGKEREFVAGISFSDGGTYYADSVKGRFTISRDNAKNTVYLQMNSLKPEDTAVYYCAATYPYSWVYSGYYYWGQGTQVTVSS | low polyreactivity |
| QVQLVESGGGLVQAGGSLRLSCAASGSTLSNNAMGWYRQAPGKERELVAAINDSAGSTYYADSVKGRFTISRDNAKNTVYLQMNSLKPEDTAVYYCAAKNYGRSFYYGYDYWEQGTQVTVSS | low polyreactivity |
| QVKLVESGGGLVQAGGSLRLSCAASGSIFYQYAMGGNRQAPGKERELVAVINRSGSSTYYADSVKGRFTISRDNAKNTVYLQMNSLKPEDTAVYYCAGASKYSEYNYWGQGTQVTVSS | high polyreactivity |
| QVQLVESGGGLVQAGGRLRLSCAASGSIFASYALGWYRQAPGKERELVAVITRSGGSTYYADSVKGRFTISRDNAKNTVYLQMNSLKPEDTAVYYCAAQYGRTYYSRREYWGQGTQVTVSS | high polyreactivity |
| QVQLVESGGGLFQAGGSLRLSCAASGSIFWSYAMGWYRQAPGKERELVAAISSGGSTNYADSVKGRFTISRDNAKNTVYLQMNSLQPEDTAVYYCNALGAKGYVKGFDYWGQGTQVTVSS | low polyreactivity |
| QVQLVESVGGLVQAGGSLRISCAASGRIFYNYAMGRYRQAPGKERELVAAISGSGGSTYYADSVKGRFTISRDIAKNTVYLQMNSLIPEDTAVFYCSTSGPQYYSRNFDYWGQGTQVTVSS | low polyreactivity |
| QVHLVESGGGLVQAGGILRLSCAASGLTFRYYTMGWYRQEPGKERELVASITIRGGSTYYADSVKGRFTISRDNAKNTVYLQMNSLKPEDTAVYYCNTRYGFSFGYWGQGTQVTVSS | high polyreactivity |
| QVQLVESGGGLVQAGGSLRLSCAASGSIFTFYAMGWYRQAPGKERELVATINRIGGNTYYADSVKGRFTISRDNAKNTVYFQMNSLKPEDTAVYYCAADRSAWGSNWETQFDYWGQGTQVTVSS | low polyreactivity |
| QVQLVESGGGLVQAGGSLRLSCAASGSTFSVYAMGWYRQAPGTERELVAAITWSGGSTYYADSVKGRFTISRDNAKNTDYLQMNSLKPEDTAVYDCNAEGYYVWGITTYWLHQYGYWGQGTQVTVSS | low polyreactivity |
| QVQLVESGGGLVQAGGSLRLSCAASGRNFYYYAMGWYRQAPGKERELVATITGGGRTYYADSVKGRFTISRDNAKNTVYLQMHSLHPEDTAVYYCAAQYGGLSYRYDYWGQGTQVTVSS | high polyreactivity |
| QVQLVESGGGLVQAGGSLRLSCAASGFIFRGNAMGWYRQAPGKERELVAAISKRGGSTNYADSVKGRFTISRDNAKNTVYLQMNSLKPEDTAVYYCNAEGIYRQPRGYVYRYDYWGQGTQVTVSS | high polyreactivity |
| QVQLVESGGGLVQAGGSLRLSCAASGSIFKGYAMGWYRQAPGKERELVASISWRGDNTYYADSVKGRFTISRDYAKNTVYLQMNSLKPEDTAVYYCNAQSREHYFFIYDYWGQGTQVTVSS | high polyreactivity |
| QVQLVESGGGLVQAGGSLRLSCAASGRTFGSYAMGWYRQAPGKERELVAAISVSGDSTFYADSVKGRFTISRDNAKNTVYLQMNSLKQEDTAVYYCAARDYVEFWGQGTQVTVSS | low polyreactivity |
| QVQLVESGGGLVQAGGSLRLSCAASGSTFVRNDMGWYRQAPGKERELVAAINGDGRTYYADSVKGRFTISRDNAKNTVYLQLNSLKPEDTAVYYCAADGYLLYVQHPNGRRYDYWGQGTQVTVSS | low polyreactivity |
| QVQLVESGGGLVQAGGSLRLSCAASGRTFNRNAMGWYRQAPRKERELVAAISRGGTTSYADSVKGRFTISRDNAKNTVYLQMNSLQPEDTAVYYCAAEPYIQWVYYRGNGRRYGYWGQGTQVTVSS | high polyreactivity |

| Sequence | polyreactivity (PSR sort gate) |
| --- | --- |
| QVQLVESGGGLVQAGGSLRLSCAASGSIFNRYAMGCYRQATGKERELVAAINSRGGSTSYADSVKGRFTISRDIAKNTVYLQMNSLKPEDTAVYYCAADRGVNSYGYWGQGTQETVSS | high polyreactivity |
| QGQLVESGGGLVQAGGSLRLSCAASGYIFNPNAMGWYRQGPGKERDLFAGITWRGDRTYYADSVKGRFTISRDNAKNTVYLQMNCLKPEDTAVYYCNGAGADRWSYSSNIRRYYYWGHGTQVTVSS | high polyreactivity |
| QVQLVESGGGLVQAGGSLRLSCAASGSIFYVNAMGWYRQAPGKERELVASITASGGTTYYADSVKGRFTISRDNAKNNVYLQMNSLKPEDTAVYYCAATFIQVVVNVQLYDYDYWGQGTQVTVSS | low polyreactivity |
| QVQLVESGGGLVQAGGSLRLSCAASGFIFTLYAMGWYRQAPGKERELVASIRGSGGNTYYADSVKGRFTISRDNAKNTVYLQMNSLKPEDTAVYYCAARTYRRPYYSWGQGTQVTVSS | high polyreactivity |
| QVQLVESGGGLVQAGGSLRLSCAASGRTFRRYAMGWYRQAPGKERELVAAITRGTRTNYADSVKGRFTISRDNAKNTVYLQMNSLKPEDTAVYYCNARRFLYSGGAYQFYYWGQGTQVTVSS | low polyreactivity |
| QVQLVESGGGLVQAGGSLRLSCAASGSTFGVNAMGWYRQAPGKERELVATISRGTSTNYADSVKGRFTISRDNAKNTVYLQINSLKPEDTAVYYCAKRVFYPGAYRYYYWGQGTQVTVSS | high polyreactivity |
| QVQLVESGGGLVQAGGSLRLSCAASGRTYSYYAMGWYRQAPGKERQLVAAITTRTGSTYYADSVKGRFTISRDNAKNTVYLQMNSLKPEDTAVYYCAAEPRYLRSGKGFDYWGQGTQVTVSS | high polyreactivity |
| QVQLVESGGGLVQAGGSLRLSCAASGSIFGPYMGWYRQAPGKERELVASVVSTYYADSVKGRFTISRDNAKNTVYLQMNSLKPEDTAVYYCNTQDTKNKSSVFVPSDYWGQGTQVTVSS | low polyreactivity |
| QVQLVESGGGLVQAGGRLRLSCAASGIIFGGYSMGWYRQAPGKERELVADITWSGGSTTYADSVKGRFTISRDNAKNTVYLQMNSLKPEDTAVYYCAAEDYYIYREPYDYWGQGTQVTVSS | low polyreactivity |
| QVQLVESGGGLVQAGGSLRLSCAASGSIFEPNAMGWYRQAPGKERELVAAISWNDGDTYYADSVKGRFTISRDNAKNTVYLQMNSLKPVDTAVYYCAAETGYAFDYWGQGTQVTVSS | low polyreactivity |
| QVQLVESGGGLVQAGGSLRLSCAASGLTFWVYTMGWYRQAPGKERELVAAITRGGSTTYADSVKGRFTISRDNAKNSVYLQMNSLQPEDTAVYYCNAVYKYSVVYKLDYWGQGTQVTVSS | high polyreactivity |
| QVQLVESGGGLVQAGGSLRLSCAASGFIFYRYAMGRYRQAPGKERELVAAISWGGGSTTYYADSVKGRFTISRDNAKNTVYLQMNSLKPEDTAVYYCAAYIGKGYGSEYYYWGQGTQVTVSS | low polyreactivity |
| QVQLVESGGGLVQAGGSLRLSCAASGSIFYFNAMGWYRQATGKERELVADISWSGGDSTYYADSVKGRFTISRDNAKNTVYLQMNSLKPEDTAVYYCAADLSYPDWSRYQWDMDYWGQGTQVTVSS | low polyreactivity |
| QVQLQESAGGLVQAGGSLRMSCAASGTIFSEANMGWYRQAPGKERELVATIGQGSTTNYADSVKGRFTISRDNAKNTVYLQMNSLKPEETAVYYCAVVTVDPVGFVYWGQGTQVTVSS | low polyreactivity |
| QVQLVESAGGLVQAGGILRLSCHASGITFTSYVMGWYRQSPGKERELVAAIRWSGGRTYYADSVKGRFTISRDNAKNTVYLQMNSLKPEDTAVYYCNRVTRSHVDYWGQGTQVTVSS | high polyreactivity |

— the nanobody polyreactivity screen of Harvey et al. (2022)
